For this experiment, the target named is 32P-labelled ORF145/RIP (protein kinase A recognition sequence and C-terminal His-tag) (Acidianus two-tailed virus (ATV)). The experiment is described as follows: native gel or EMSA; 32P-ORF145/RIP (1 nM) with 1–100 nM Sso RNAP in 10 mM MOPS pH 6.5, 10 mM MgCl2, 260 mM NaCl, 5 mM DTT, 10% glycerol, BSA, 2 mM ATP, 65 °C 5 min; 6% native PAGE; tight binding equation; complexes also resistant to 2 M NaCl.

In publication PMC5123050 one finds Kd data, which are given here for one substance.

pKd: −log10 of the molar value.

By pKd is commonly meant the negative decadic logarithm of the Kd, by convention in mol/L. Low readings indicate a large Kd, high ones a small Kd.

Regarding “Sulfolobus solfataricus (Sso) RNA polymerase, 13 subunits (from UniProt Q980R2 1-880) (complex)”, the negative-log Kd (pKd) is 7.90.
